Measured values taken from patent US10188742B2, “Bi-specific antibodies and uses thereof” (ACADEMIA SINICA, priority 2014, dated 2019).

Legend:
BSA = BSA (Bos taurus, UniProt P02769); assay: ELISA antigen binding of BsAbs, control protein
Experimental: (§1) The anti-PEG binding specificity of BsAbs was measured by adding graded concentrations of PEG2×TAG72, PEG2×DNS, hCC49 scFv, h6.3Fab×EGFR or h6.3Fab×CD19 in 50 μL 2% skim milk to the mucin, BSA-PEG5000, NH2-PEG3k-NH2 or BSA coated plates at RT for 1 h. The plates were washed with PBS-T (PBS containing 0.05% Tween-20) three times. Rabbit anti-6×His (2 μg/mL) supplemented with HRP-conjugated goat anti-rabbit (2 μg/mL) or HRP-conjugated goat Ig anti human IgG Fab (2 μg/mL) (Jackson ImmunoResearch Laboratories, West Grove, Pa.) in 50 μL dilution buffer were added for 1 h at room temperature. The plates were washed with PBS-T (PBS containing 0.05% Tween-20) three times and with PBS two times. Bound peroxidase activity was measured by adding 150 μL/well ABTS substrate solution (BioLegend, San Diego, Calif.) for 30 min at room temperature. The absorbance (405 nm) of wells was measured in a microplate reader (Molecular Device, Menlo Park, Calif.).
Binding of the BsAbs was detected by ELISA. Microtiter plates were first coated with antigens and then PEG2×TAG72, PEG2×DNS BsAbs or hCC49 (anti-TAG72) single chain antibody was added. After the plates were extensively washed to remove unbound antibodies, the remaining bound antibodies in each well were detected with HRP-conjugated secondary antibody. […] In sum, PEG2×TAG72 anti-PEG (hE11) BsAb of example 1.2 can bind both PEG and tumor antigens. […]

A431 cells (EGFR+) = assay: Flow cytometry: BsAb-directed PEG-liposome Texas Red / PEG-Qdot655 on cells; assay type: cell-based, human; conditions: PEG-liposome Texas Red and PEG-Qdot655, 10 μg/mL BsAb
Experimental: PEG2×TAG72 or control PEG2×DNS BsAbs (10 μg/mL) were incubated with A-375 (TAG72−), MCF-7 (TAG72+), Jurkat (TAG72+) or OVCAR-3 (TAG72+) cells at 4° C. for 30 min followed by FITC-labeled goat anti-human immunoglobulin second antibody (2 μg/mL) (Jackson ImmunoResearch Laboratories, West Grove, Pa.) or FITC-labeled 4arm-PEG (2 μg/mL). Tumor-specific targeting of PEGylated compounds was also examined by staining A431 (EGFR^high), and Raji (CD19^high) cell lines with 10 μg/mL of h6.3Fab×EGFR or h6.3Fab×CD19 BsAbs in PBS containing 0.05% BSA (staining buffer) at 4° C. for 30 min. The cells were washed with cold PBS for 3 times. PEG-Qdot655 (8 nM) (Invitrogen, Grand Island, N.Y.) or PEG-liposomal Texas-Red (100 nm size, 50 μM, lipid conc.) (FormuMax Scientific, Palo Alto, Calif.) in staining buffer was added to cells for 30 min at 4° C. Raji cells (CD19+) or SKBR3 cells (HER2+) were incubated with 10 μg/ml h15-2b-knob/BU12-hole, h15-2b-knob/anti-Her2-hole, h6-3-knob/BU12-hole or h6-3-knob/anti-Her2-hole BsAbs, washed and incubated with 0.25 μg/ml FITC-labeled goat anti-human IgG or 10 nM methoxy-PEG Qdot 655 at 4° C. for 30 min. After washing with cold PBS, the surface fluorescence of 10^4 viable cells was measured by FACScaliber flow cytometer (Becton Dickinson, Mountain View, Calif., USA) then analyzed with Flowjo (Tree Star Inc., San Carlos, Calif., USA). […]

[1] = tested on: Ramos (CD19+) and A431 (EGFR+) tumor; assay: In vivo optical imaging of PEG-NIR797 probes; parameters: species or system BALB/c nude mice; conditions: i.v. BsAb and PEG-NIR797; 45 min, 24 and 48 hours
Experimental: The mice were then imaged at 45 min, 24 and 48 hours after injection using an IVIS spectrum optical imaging system.

[2] = ELISA PEG binding of h6.3 BsAbs; conditions: FIG. 14A
Experimental: as §1, with “The anti-PEG binding specificity of BsAbs was measured by adding graded concentrations of PEG2×TAG72, PEG2×DNS, hCC49 scFv, h6.3Fab×EGFR or h6.3Fab×CD19 in 50 μL 2% skim milk to the mucin, BSA-PEG5000, NH2-PEG3k-NH2 or BSA coated plates at RT for 1 h.” left out
The PEG-binding kinetics of h6-3Fab×EGFR and h6.3Fab×CD19 BsAbs were verified by Microscale Thermophoresis (MST) (FIGS. 14D and 14E).

A431 (EGFR+) cells = assay: Cytotoxicity assay of Doxisome with h6.3 BsAbs (3H-thymidine); assay type: cell-based, human; conditions: compared with Doxisome alone
Experimental: A431 (EGFR^high) and Raji (CD19^high) cells (5000 cells/well) were seeded in 96-well plates overnight. Fifteen microgram per mL of h6.3Fab×EGFR or h6.3Fab×CD19 BsAbs were added to the cells for 30 min at 37° C. and followed by graded concentrations of free doxorubicin or PEGylated liposomal doxorubicin (Doxisome®, Taiwan Liposome Company Ltd., Taipei, Taiwan) was added to the cells in triplicate at 37° C. for 4 h. The cells were subsequently washed once and incubated for an additional 48 h in fresh culture medium and then pulsed for 16 h with ^3H-thymidine (1 μCi/well). Results are expressed as percent inhibition of ^3H-thymidine incorporation into cellular DNA in comparison to untreated cells.
Next, the ability of whether h6.3Fab×CD19 and h6.3Fab×EGFR BsAbs could increase the cytotoxicity of the drug-loaded nanoparticles (NPs) to antigen-positive cancer cells was investigated. Raji (CD19+) and A431 (EGFR+) cells were incubated with h6.3Fab×CD19 and h6.3Fab×EGFR, followed by the addition of graded concentrations of Doxisome (i.e., PEGylated liposomal doxorubicin).

A431 (EGFR+) tumor cells = assay: Confocal live cell imaging of PEG-Qdot655 internalization; assay type: cell-based, human; conditions: 10 μg/mL BsAb, 16 nM PEG-Qdot655
Experimental: The coverslips (30 mm) in POC chambers were coated with 10 μg/mL poly-L-lysine in PBS for 30 min at room temperature. The coverslips were washed twice with PBS and then 5×10^4 cells/chamber of A431 (EGFR+) tumor cells were seeded on the coverslips. A431 cells were incubated with 10 μg/mL of h6.3Fab×EGFR or h6.3Fab×CD19 BsAbs at 37° C. for 30 min containing 1 μg/mL of Hoechst 33342 and 100 nM of LysoTracker® Red DND-99 (Invitrogen Life Technologies Corporation, NY, USA). The cells were washed with culture medium for 2 times. Cell imaging was recorded with an Axiovert 200M Confocal Microscope (Carl Ziess Inc., Thornwood, N.Y.) after adding 16 nM of PEG-Qdot655 solution (Invitrogen Life Technologies Corporation, NY, USA).
To verify whether BsAb-targeted substance could be internalized by antigen-positive cancer cells, live cell imaging was performed by staining cells with lysosome tracker and BsAbs, followed by the addition and incubation of PEG-Qdot655.

MDA-MB-468 cells (EGFR+) = assay: Cytotoxicity assay of Doxisome with h6.3 BsAbs (3H-thymidine); assay type: cell-based, human; conditions: compared with Doxisome alone

Chain of BSA (P02769 25-607): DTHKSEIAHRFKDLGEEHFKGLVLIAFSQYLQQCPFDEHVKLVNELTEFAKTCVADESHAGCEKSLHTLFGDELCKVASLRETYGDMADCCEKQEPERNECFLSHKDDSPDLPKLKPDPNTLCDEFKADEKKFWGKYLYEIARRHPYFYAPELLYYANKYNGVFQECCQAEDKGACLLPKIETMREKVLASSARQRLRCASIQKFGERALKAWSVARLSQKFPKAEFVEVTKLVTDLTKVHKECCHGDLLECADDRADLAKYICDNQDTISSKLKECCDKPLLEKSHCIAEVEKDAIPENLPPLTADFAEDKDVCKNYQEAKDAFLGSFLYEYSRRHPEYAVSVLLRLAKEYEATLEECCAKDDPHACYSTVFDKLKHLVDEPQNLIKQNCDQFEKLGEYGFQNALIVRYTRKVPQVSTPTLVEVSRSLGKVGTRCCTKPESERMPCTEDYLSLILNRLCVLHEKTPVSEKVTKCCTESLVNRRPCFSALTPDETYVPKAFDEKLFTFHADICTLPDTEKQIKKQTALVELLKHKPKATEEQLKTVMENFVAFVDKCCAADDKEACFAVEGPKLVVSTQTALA

binding to BSA (BSA): not to the control BSA protein
binding to NH2-PEG10,000-NH2 [2]: bound to the NH2-PEG10,000-NH2
B1: h6.3Fab×EGFR: monovalent humanized anti-PEG h6.3 Fab fused to 11F8 anti-EGFR dsFv; SEQ ID NO 9, 10, 4, 7, 6 (protein)
chain 1: DIVMTQSPDSLAVSLGERATINCKSSQSVLYSSNQMNYLAWYQQKPGQPPKLLIYWASTRESGVPDRFSGSGSGTDFTLTISSLQAEDVAVYYCLQYLSSWTFGGGTKLEIKTYSLSSTLTLSKADYEKHKLYACEVTHQGLSSPVTKSFNRGEC
chain 2: QVQLVQSGSELKKPGASVKVSCKASGYTFKNYGMNWVRQAPGQGLEWMGWINTYTGQPIYANDFKGRFVFSLDTSVSTAYLQISSLKAEDTAVYYCARDWGPYWGQGTLVTVSSASTKGPSVFPLAPSSKSTSGGTAALGCLVKDYFPEPVTVSWNSGALTSGVHTFPAVLQSSGLYSLSSVVTVPSSSLGTQTYICNVNHKPSNTKVDKRVEPKSCDK
chain 3: VDLVTVSSASTGGGSGQLGGGGS
chain 4: QVQLQESGPGLVKPSQTLSLTCTVSGGSISSGDYYWSWIRQPPGKCLEWIGYIYYSGSTDYNPSLKSRVTMSVDTSKNQFSLKVNSVTAADTAVYYCARVSIFGVGTFDYWGQGTLVTVSSGGGGSGGGGSGGGGSEIVMTQSPATLSLSPGERATLSCRASQSVSSYLAWYQQKPGQAPRLLIYDASNRATGIPARFSGSGSGTDFTLTISSLEPEDFAVYYCHQYGSTPLTFGCGTKAEIK
chain 5: TRHHHHHH
modifications: Humanized 6.3 VL-Ck; Humanized 6.3 VH-CH1; Peptide Linker; 11F8 anti-EGFR dsFv; 6xHis Tag
directing PEGylated substance to A431 cells (A431 cells (EGFR+)): capable of directing the PEGylated substance
PEG-NIR797 signal in A431 tumors [1]: Enhanced signals of PEG-NIR797
effect on cytotoxicity of Doxisome to A431 cells (A431 (EGFR+) cells): enhanced cytotoxicity of Doxisome
uptake of PEG-Qdot655 into A431 cells (endocytic vesicles) (A431 (EGFR+) tumor cells): displayed red fluorescence within endocytic vesicles
effect on cytotoxicity of Doxisome to MDA-MB-468 cells (MDA-MB-468 cells (EGFR+)): enhanced cytotoxicity of Doxisome
